T1: PYL3 with HAB1 (Arabidopsis thaliana, UniProt Q9SSM7, F81A)
T1 construct: 6xHis-tagged PYL3 plus HAB1 (169-511), GST tag removed by TEV protease; both from E. coli; with Protein phosphatase 2C 16
T1 sequence (Q9SSM7 1-209 F81A): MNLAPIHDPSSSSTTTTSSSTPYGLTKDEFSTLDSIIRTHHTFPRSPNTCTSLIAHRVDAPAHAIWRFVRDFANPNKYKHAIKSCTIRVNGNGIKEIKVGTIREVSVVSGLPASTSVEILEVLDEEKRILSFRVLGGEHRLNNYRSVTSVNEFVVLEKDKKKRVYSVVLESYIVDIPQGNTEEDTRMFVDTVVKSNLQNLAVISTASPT
T1 sequence (Q9CAJ0 169-511 partner): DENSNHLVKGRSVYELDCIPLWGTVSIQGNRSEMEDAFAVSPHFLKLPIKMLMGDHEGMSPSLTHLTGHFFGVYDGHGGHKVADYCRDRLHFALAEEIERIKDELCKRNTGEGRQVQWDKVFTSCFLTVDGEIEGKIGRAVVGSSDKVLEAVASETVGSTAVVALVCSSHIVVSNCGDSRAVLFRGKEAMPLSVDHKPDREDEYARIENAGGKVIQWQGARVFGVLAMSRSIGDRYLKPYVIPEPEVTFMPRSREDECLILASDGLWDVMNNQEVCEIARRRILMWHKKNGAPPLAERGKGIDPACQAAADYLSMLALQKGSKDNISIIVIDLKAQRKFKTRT

T2: PYL3 with HAB1 (Arabidopsis thaliana, UniProt Q9SSM7, F188A)
T2 construct: 6xHis-tagged PYL3 plus HAB1 (169-511), GST tag removed by TEV protease; both from E. coli; with Protein phosphatase 2C 16
T2 sequence (Q9SSM7 1-209 F188A): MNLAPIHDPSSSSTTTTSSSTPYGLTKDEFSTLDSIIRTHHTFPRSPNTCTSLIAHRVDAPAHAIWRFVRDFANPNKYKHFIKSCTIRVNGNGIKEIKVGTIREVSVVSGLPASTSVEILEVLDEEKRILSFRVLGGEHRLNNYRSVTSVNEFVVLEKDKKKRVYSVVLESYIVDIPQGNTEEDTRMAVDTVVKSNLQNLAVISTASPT
T2 sequence (Q9CAJ0 169-511 partner): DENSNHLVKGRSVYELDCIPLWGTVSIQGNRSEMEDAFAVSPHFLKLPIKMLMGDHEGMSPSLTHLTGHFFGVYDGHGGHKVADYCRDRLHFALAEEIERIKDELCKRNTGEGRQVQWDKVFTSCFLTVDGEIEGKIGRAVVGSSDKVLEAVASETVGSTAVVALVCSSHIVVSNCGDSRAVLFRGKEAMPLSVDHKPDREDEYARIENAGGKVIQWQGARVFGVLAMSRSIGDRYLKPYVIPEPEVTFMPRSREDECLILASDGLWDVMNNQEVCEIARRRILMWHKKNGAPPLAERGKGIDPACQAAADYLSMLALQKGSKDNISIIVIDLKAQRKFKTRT

T3: PYL3 with HAB1 (Arabidopsis thaliana, UniProt Q9SSM7)
T3 construct: 6xHis-tagged PYL3 plus HAB1 (169-511), GST tag removed by TEV protease; both from E. coli; with Protein phosphatase 2C 16
T3 sequence (Q9SSM7 1-209): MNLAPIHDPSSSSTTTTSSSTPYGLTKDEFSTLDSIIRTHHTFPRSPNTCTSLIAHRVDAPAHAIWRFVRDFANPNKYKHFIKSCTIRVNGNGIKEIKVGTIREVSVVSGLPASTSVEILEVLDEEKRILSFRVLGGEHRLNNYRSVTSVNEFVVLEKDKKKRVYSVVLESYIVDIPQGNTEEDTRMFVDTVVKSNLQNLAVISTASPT
T3 sequence (Q9CAJ0 169-511 partner): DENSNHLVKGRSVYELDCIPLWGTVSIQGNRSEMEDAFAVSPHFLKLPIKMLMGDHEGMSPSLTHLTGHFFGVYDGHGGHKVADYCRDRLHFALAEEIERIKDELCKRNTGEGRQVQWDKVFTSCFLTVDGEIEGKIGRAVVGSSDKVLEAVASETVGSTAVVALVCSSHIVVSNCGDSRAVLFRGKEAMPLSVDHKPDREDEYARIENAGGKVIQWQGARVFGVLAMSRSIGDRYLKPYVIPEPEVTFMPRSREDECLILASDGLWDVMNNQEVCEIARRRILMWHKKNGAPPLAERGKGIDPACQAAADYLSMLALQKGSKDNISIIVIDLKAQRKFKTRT


Experiments:
PYL3 with HAB1 [1] = biological target: T1, PYL3 with HAB1; experiment: HAB1 phosphatase assay (Promega V2460), phosphopeptide substrate; format: biochemical; conditions: read-out: % inhibition of HAB1 with 5 μM ABA
PYL3 with HAB1 [2] = biological target: T2, PYL3 with HAB1; experiment: as above; format: biochemical; conditions: read-out: % inhibition of HAB1 with 5 μM ABA
PYL3 with HAB1 [3] = biological target: T3, PYL3 with HAB1; experiment: as above; format: biochemical; conditions: HAB1 0.5 μM, PYL3 1 μM, ABA 5 μM, pH 7.5, 30 °C; ABA promotes inhibition of HAB1 by PYL3
[4] = biological target: AD-HAB1 (169-511) (Arabidopsis thaliana) (UniProt Q9CAJ0)
Sequence of AD-HAB1 (169-511) (Arabidopsis thaliana) (Q9CAJ0 whole entry): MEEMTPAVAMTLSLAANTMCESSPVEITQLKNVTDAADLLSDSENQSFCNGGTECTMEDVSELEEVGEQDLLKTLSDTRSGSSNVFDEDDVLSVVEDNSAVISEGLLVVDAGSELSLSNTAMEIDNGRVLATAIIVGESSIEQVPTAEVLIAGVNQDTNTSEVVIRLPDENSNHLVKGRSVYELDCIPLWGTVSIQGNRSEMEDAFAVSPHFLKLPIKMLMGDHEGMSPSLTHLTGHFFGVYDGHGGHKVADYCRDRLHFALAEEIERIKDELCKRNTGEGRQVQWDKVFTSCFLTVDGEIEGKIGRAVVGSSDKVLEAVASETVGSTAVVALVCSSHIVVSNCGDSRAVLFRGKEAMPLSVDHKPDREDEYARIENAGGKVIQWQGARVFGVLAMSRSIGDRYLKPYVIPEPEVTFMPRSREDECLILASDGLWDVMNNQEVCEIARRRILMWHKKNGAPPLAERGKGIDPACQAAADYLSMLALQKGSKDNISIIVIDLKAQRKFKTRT

[5] = biological target: AD-HAB1 (169-511) (Arabidopsis thaliana) (UniProt Q9CAJ0); remark: listed apart in the source
[6] = biological target: AD-HAB1 (169-511) (Arabidopsis thaliana) (UniProt Q9CAJ0); remark: listed apart in the source
[7] = biological target: the molecule itself; experiment: cross-linking; EGS cross-linking gel assay: 20 μg 6x His-tagged PYL3 WT or mutant in PBS (pH 7.5, 150 mM NaCl), 100 μL, increasing EGS, 10 min at room temperature, stopped with Tris-glycine; 10% SDS/PAGE, Coomassie; self-association (dimer)

Molecule	inhibition of HAB1 (0.5 μM) phosphatase activity by 1 μM PYL3 mutant, without ABA [5]	further results
CC1=CC(=O)CC(C)(C)[C@@]1(O)/C=C/C(C)=C\C(=O)O [ABA]		inhibition at 5 µM (PYL3 with HAB1 [1]): ~70%; inhibition at 5 µM (PYL3 with HAB1 [2]): ~70%; HAB1 phosphatase assay (Promega V2460), phosphopeptide substrate (PYL3 with HAB1 [3]): PYL3 could almost completely inhibit the activity of HAB1 in the presence of ABA
PYL3 F81A (receptor) MNLAPIHDPSSSSTTTTSSSTPYGLTKDEFSTLDSIIRTHHTFPRSPNTCTSLIAHRVDAPAHAIWRFVRDFANPNKYKHAIKSCTIRVNGNGIKEIKVGTIREVSVVSGLPASTSVEILEVLDEEKRILSFRVLGGEHRLNNYRSVTSVNEFVVLEKDKKKRVYSVVLESYIVDIPQGNTEEDTRMFVDTVVKSNLQNLAVISTASPT		inhibition of HAB1 (0.5 μM) phosphatase activity by 1 μM PYL3 mutant, with ABA (5 μM) [6]: 70%
PYL3 V108A (6x His-tagged) (receptor, Arabidopsis thaliana, UniProt Q9SSM7 1-209, looked up, PYL3, Arabidopsis thaliana, in pET-28a-tev, site-directed mutant; Same limits as m1; source: E. coli BL21(Rosseta), purified (Ni-charged resin, SEC Superdex-200)) MNLAPIHDPSSSSTTTTSSSTPYGLTKDEFSTLDSIIRTHHTFPRSPNTCTSLIAHRVDAPAHAIWRFVRDFANPNKYKHFIKSCTIRVNGNGIKEIKVGTIREVSVASGLPASTSVEILEVLDEEKRILSFRVLGGEHRLNNYRSVTSVNEFVVLEKDKKKRVYSVVLESYIVDIPQGNTEEDTRMFVDTVVKSNLQNLAVISTASPT		stoichiometry N [7]: 2
wild-type PYL3 (6x His-tagged) (receptor, Arabidopsis thaliana, UniProt Q9SSM7 1-209, looked up, PYL3 (pyrabactin resistance/Pyr1-like 3), Arabidopsis thaliana, subcloned from a cDNA library into pET-28a-tev; also called PYL3 WT; source: E. coli BL21(Rosseta), purified (Ni-charged resin, SEC Superdex-200)) MNLAPIHDPSSSSTTTTSSSTPYGLTKDEFSTLDSIIRTHHTFPRSPNTCTSLIAHRVDAPAHAIWRFVRDFANPNKYKHFIKSCTIRVNGNGIKEIKVGTIREVSVVSGLPASTSVEILEVLDEEKRILSFRVLGGEHRLNNYRSVTSVNEFVVLEKDKKKRVYSVVLESYIVDIPQGNTEEDTRMFVDTVVKSNLQNLAVISTASPT		stoichiometry N [7]: 2
PYL3 F188A (receptor) MNLAPIHDPSSSSTTTTSSSTPYGLTKDEFSTLDSIIRTHHTFPRSPNTCTSLIAHRVDAPAHAIWRFVRDFANPNKYKHFIKSCTIRVNGNGIKEIKVGTIREVSVVSGLPASTSVEILEVLDEEKRILSFRVLGGEHRLNNYRSVTSVNEFVVLEKDKKKRVYSVVLESYIVDIPQGNTEEDTRMAVDTVVKSNLQNLAVISTASPT		inhibition of HAB1 (0.5 μM) phosphatase activity by 1 μM PYL3 mutant, with ABA (5 μM) [6]: 70%
BD-PYL3 V108K V107F V192F (receptor) MNLAPIHDPSSSSTTTTSSSTPYGLTKDEFSTLDSIIRTHHTFPRSPNTCTSLIAHRVDAPAHAIWRFVRDFANPNKYKHFIKSCTIRVNGNGIKEIKVGTIREVSFKSGLPASTSVEILEVLDEEKRILSFRVLGGEHRLNNYRSVTSVNEFVVLEKDKKKRVYSVVLESYIVDIPQGNTEEDTRMFVDTFVKSNLQNLAVISTASPT	90%	
BD-PYL3 V108K V107L V192F (receptor) MNLAPIHDPSSSSTTTTSSSTPYGLTKDEFSTLDSIIRTHHTFPRSPNTCTSLIAHRVDAPAHAIWRFVRDFANPNKYKHFIKSCTIRVNGNGIKEIKVGTIREVSLKSGLPASTSVEILEVLDEEKRILSFRVLGGEHRLNNYRSVTSVNEFVVLEKDKKKRVYSVVLESYIVDIPQGNTEEDTRMFVDTFVKSNLQNLAVISTASPT	87.5%	
BD-PYL3 V108K V107F V192F L111F (receptor) MNLAPIHDPSSSSTTTTSSSTPYGLTKDEFSTLDSIIRTHHTFPRSPNTCTSLIAHRVDAPAHAIWRFVRDFANPNKYKHFIKSCTIRVNGNGIKEIKVGTIREVSFKSGFPASTSVEILEVLDEEKRILSFRVLGGEHRLNNYRSVTSVNEFVVLEKDKKKRVYSVVLESYIVDIPQGNTEEDTRMFVDTFVKSNLQNLAVISTASPT	98%	
BD-PYL3 V108K V107L V192F L111F (receptor) MNLAPIHDPSSSSTTTTSSSTPYGLTKDEFSTLDSIIRTHHTFPRSPNTCTSLIAHRVDAPAHAIWRFVRDFANPNKYKHFIKSCTIRVNGNGIKEIKVGTIREVSLKSGFPASTSVEILEVLDEEKRILSFRVLGGEHRLNNYRSVTSVNEFVVLEKDKKKRVYSVVLESYIVDIPQGNTEEDTRMFVDTFVKSNLQNLAVISTASPT	92.5%	

More lines, main results first:

inhibition of HAB1 (0.5 μM) phosphatase activity by 1 μM PYL3 mutant, without ABA [5]	Molecule	further results
25%	PYL3 V108K V107L (receptor) MNLAPIHDPSSSSTTTTSSSTPYGLTKDEFSTLDSIIRTHHTFPRSPNTCTSLIAHRVDAPAHAIWRFVRDFANPNKYKHFIKSCTIRVNGNGIKEIKVGTIREVSLKSGLPASTSVEILEVLDEEKRILSFRVLGGEHRLNNYRSVTSVNEFVVLEKDKKKRVYSVVLESYIVDIPQGNTEEDTRMFVDTVVKSNLQNLAVISTASPT	inhibition of HAB1 phosphatase activity by the PYL3 mutant, without ABA (as retold in the discussion, Fig. 3) [4]: 20%
85%	PYL3 V108K V107L V192L L111F (receptor) MNLAPIHDPSSSSTTTTSSSTPYGLTKDEFSTLDSIIRTHHTFPRSPNTCTSLIAHRVDAPAHAIWRFVRDFANPNKYKHFIKSCTIRVNGNGIKEIKVGTIREVSLKSGFPASTSVEILEVLDEEKRILSFRVLGGEHRLNNYRSVTSVNEFVVLEKDKKKRVYSVVLESYIVDIPQGNTEEDTRMFVDTLVKSNLQNLAVISTASPT	
65%	PYL3 V108K V107F (receptor) MNLAPIHDPSSSSTTTTSSSTPYGLTKDEFSTLDSIIRTHHTFPRSPNTCTSLIAHRVDAPAHAIWRFVRDFANPNKYKHFIKSCTIRVNGNGIKEIKVGTIREVSFKSGLPASTSVEILEVLDEEKRILSFRVLGGEHRLNNYRSVTSVNEFVVLEKDKKKRVYSVVLESYIVDIPQGNTEEDTRMFVDTVVKSNLQNLAVISTASPT	inhibition of HAB1 phosphatase activity by the PYL3 mutant, without ABA (as retold in the discussion, Fig. 3) [4]: 40%
80%	PYL3 V108K V107L L111F (receptor) MNLAPIHDPSSSSTTTTSSSTPYGLTKDEFSTLDSIIRTHHTFPRSPNTCTSLIAHRVDAPAHAIWRFVRDFANPNKYKHFIKSCTIRVNGNGIKEIKVGTIREVSLKSGFPASTSVEILEVLDEEKRILSFRVLGGEHRLNNYRSVTSVNEFVVLEKDKKKRVYSVVLESYIVDIPQGNTEEDTRMFVDTVVKSNLQNLAVISTASPT	
50%	PYL3 V108K V107L V192L (receptor) MNLAPIHDPSSSSTTTTSSSTPYGLTKDEFSTLDSIIRTHHTFPRSPNTCTSLIAHRVDAPAHAIWRFVRDFANPNKYKHFIKSCTIRVNGNGIKEIKVGTIREVSLKSGLPASTSVEILEVLDEEKRILSFRVLGGEHRLNNYRSVTSVNEFVVLEKDKKKRVYSVVLESYIVDIPQGNTEEDTRMFVDTLVKSNLQNLAVISTASPT	
